In patent publication US20060153844A1, “Methods to trigger, maintain and manipulate immune responses by targeted administration of biological response modifiers into lymphoid organs” (priority 2004, published 2006):

Test system: PLA2-specific IgG2a and IgG1 antibodies
Assay: anti-PLA2 IgG2a, IgG1 and IgE in sera after intralymphatic PLA2 plus TLR ligand
Format: in vivo, CBA/J mice
Procedure: The compounds were mixed within an hour before injection into the inguinal lymph node.
The sera were obtained over 13 weeks and analyzed by ELISA for anti-PLA2 IgG2a (FIG. 10A) and IgG1 (FIG. 10B). The ratio of IgG2a to IgG1 titers was calculated as a measure for Th1/Th2 immune response balance (FIG. 10C). […] Pre-immunization levels of anti-PLA2 antibodies were measured on sera from five mice taken the day before first injection.

B1: flagellin: flagellin, S. thyphimurium, TLR 5 ligand (protein, UniProt P06179 2-495, looked up)
Flagellin: AQVINTNSLSLLTQNNLNKSQSALGTAIERLSSGLRINSAKDDAAGQAIANRFTANIKGLTQASRNANDGISIAQTTEGALNEINNNLQRVRELAVQSANSTNSQSDLDSIQAEITQRLNEIDRVSGQTQFNGVKVLAQDNTLTIQVGANDGETIDIDLKQINSQTLGLDTLNVQQKYKVSDTAATVTGYADTTIALDNSTFKASATGLGGTDQKIDGDLKFDDTTGKYYAKVTVTGGTGKDGYYEVSVDKTNGEVTLAGGATSPLTGGLPATATEDVKNVQVANADLTEAKAALTAAGVTGTASVVKMSYTDNNGKTIDGGLAVKVGDDYYSATQNKDGSISINTTKYTADDGTSKTALNKLGGADGKTEVVSIGGKTYAASKAEGHNFKAQPDLAEAAATTTENPLQKIDAALAQVDTLRSDLGAVQNRFNSAITNLGNTVNNLTSARSRIEDSDYATEVSNMSRAQILQQAGTSVLAQANQVPQNVLSLLR
kinetics of the antibody production (time of maximum titers) (i.ln. with 0.1 μg PLA2, sera over 13 weeks): peak titers were delayed
anti-PLA2 antibody isotypes induced (IgG2a, IgG1) (i.ln. with 0.1 μg PLA2, three injections): induced both IgG2a and IgG1
